Where two headings read alike, the source gives them in different places.
With IgM: N209Q the localisation_or_trafficking (N-glycosylation at N209) was “no change”.

For CD79B: N101Q, the localisation_or_trafficking (N-glycosylation at N101) was “no change”.

In the case of CD79B: N73Q, the localisation_or_trafficking (N-glycosylation at N73) is reported as “no change”.

In the case of CD79A: N112Q, the localisation_or_trafficking (N-glycosylation at N112) is reported as “no change”.

Reference: paper PMC10524254
